Source: PMC8744557, “Engineering the Catalytic Properties of Two-Domain Laccase from Streptomyces griseoflavus Ac-993” (International Journal of Molecular Sciences, 2021)

Legend:
purified protein [1] = substrate: CCn1c(=NN=c2sc3cc(S(=O)(=O)O)ccc3n2CC)sc2cc(S(=O)(=O)O)ccc21; assay: purified protein; type: biochemical, Streptomyces griseoflavus; conditions: 50 mM Britton-Robinson buffer, O2 co-substrate
purified protein [2] = substrate: COc1cccc(OC)c1O; assay: purified protein; type: biochemical, Streptomyces griseoflavus; conditions: 50 mM Britton-Robinson buffer, O2 co-substrate

B1: SgfSL (SgfSLwt) (Streptomyces griseoflavus) (protein)
chain: AGAAPAGGEVRRVTMYAERLAGGQMGYGLEKGKASIPGPLIELNEGDTLHVEFENTMDVPVSLHVHGLDYEISSDGTKQNKSHVEPGGTRTYTWRTHEPGRRADGTWRAGSAGYWHYHDHVVGTEHGTGGIRNGLYGPVIVRRKGDVLPDATHTIVFNDMTINNRPAHTGPNFEATVGDRVEIVMITHGEYYHTFHMHGHRWADNRTGMLTGPDDPSQVIDNKICGPADSFGFQIIAGEGVGAGAWMYHCHVQSHSDMGMVGLFLVKKPDGTIPGYDPQEHAH
notes: pET32-Xa/Lic, thioredoxin/His tail cut with factor Xa; E. coli BL21(DE3)/Rosetta; homotrimer; primers encode N-terminus AGAAPAGG and C-terminus PQEHAH
With B1 the Km (purified protein [1]; pH 4.0, 30 °C) was 360 ± 70 µM, the kcat (purified protein [1]; pH 4.0, 30 °C) was 15 ± 1 s⁻¹ and the kcat/Km (purified protein [1]; pH 4.0, 30 °C) was 42000 M⁻¹ s⁻¹. The Km (purified protein [2]; pH 9.0, 30 °C) was 320 ± 80 µM, the kcat (purified protein [2]; pH 9.0, 30 °C) was 0.35 ± 0.02 s⁻¹ and the kcat/Km (purified protein [2]; pH 9.0, 30 °C) was 1090 M⁻¹ s⁻¹.

B2: SgfSL (SgfSLwt) (Streptomyces griseoflavus; M199G) (protein)
chain: AGAAPAGGEVRRVTMYAERLAGGQMGYGLEKGKASIPGPLIELNEGDTLHVEFENTMDVPVSLHVHGLDYEISSDGTKQNKSHVEPGGTRTYTWRTHEPGRRADGTWRAGSAGYWHYHDHVVGTEHGTGGIRNGLYGPVIVRRKGDVLPDATHTIVFNDGTINNRPAHTGPNFEATVGDRVEIVMITHGEYYHTFHMHGHRWADNRTGMLTGPDDPSQVIDNKICGPADSFGFQIIAGEGVGAGAWMYHCHVQSHSDMGMVGLFLVKKPDGTIPGYDPQEHAH
notes: as for B1
Protein B2 has a Km (purified protein [1]; pH 4.0, 30 °C) of 200 ± 60 µM, a kcat (purified protein [1]; pH 4.0, 30 °C) of 45 ± 7 s⁻¹ and a kcat/Km (purified protein [1]; pH 4.0, 30 °C) of 226000 M⁻¹ s⁻¹. The Km (purified protein [2]; pH 8.0, 30 °C) was 670 ± 120 µM, the kcat (purified protein [2]; pH 8.0, 30 °C) was 3.39 ± 0.17 s⁻¹ and the kcat/Km (purified protein [2]; pH 8.0, 30 °C) was 5070 M⁻¹ s⁻¹.

B3: SgfSL (SgfSLwt) (Streptomyces griseoflavus; M199A) (protein)
chain: AGAAPAGGEVRRVTMYAERLAGGQMGYGLEKGKASIPGPLIELNEGDTLHVEFENTMDVPVSLHVHGLDYEISSDGTKQNKSHVEPGGTRTYTWRTHEPGRRADGTWRAGSAGYWHYHDHVVGTEHGTGGIRNGLYGPVIVRRKGDVLPDATHTIVFNDATINNRPAHTGPNFEATVGDRVEIVMITHGEYYHTFHMHGHRWADNRTGMLTGPDDPSQVIDNKICGPADSFGFQIIAGEGVGAGAWMYHCHVQSHSDMGMVGLFLVKKPDGTIPGYDPQEHAH
notes: as for B1
For B3, the Km (purified protein [1]; pH 4.0, 30 °C) was 320 ± 50 µM, the kcat (purified protein [1]; pH 4.0, 30 °C) was 33 ± 2 s⁻¹ and the kcat/Km (purified protein [1]; pH 4.0, 30 °C) was 102000 M⁻¹ s⁻¹. For the same protein, the Km (purified protein [2]; pH 8.0, 30 °C) was 830 ± 80 µM, the kcat (purified protein [2]; pH 8.0, 30 °C) was 1.3 ± 0.05 s⁻¹ and the kcat/Km (purified protein [2]; pH 8.0, 30 °C) was 1550 M⁻¹ s⁻¹.

B4: SgfSL (SgfSLwt) (Streptomyces griseoflavus; H165A/M199G) (protein)
chain: AGAAPAGGEVRRVTMYAERLAGGQMGYGLEKGKASIPGPLIELNEGDTLHVEFENTMDVPVSLHVHGLDYEISSDGTKQNKSHVEPGGTRTYTWRTHEPGRRADGTWRAGSAGYWHYHDHVVGTEAGTGGIRNGLYGPVIVRRKGDVLPDATHTIVFNDGTINNRPAHTGPNFEATVGDRVEIVMITHGEYYHTFHMHGHRWADNRTGMLTGPDDPSQVIDNKICGPADSFGFQIIAGEGVGAGAWMYHCHVQSHSDMGMVGLFLVKKPDGTIPGYDPQEHAH
notes: as for B1
B4 was tested, and the Km (purified protein [1]; pH 3.5, 30 °C) was 90 ± 10 µM, the kcat (purified protein [1]; pH 3.5, 30 °C) was 9 s⁻¹ and the kcat/Km (purified protein [1]; pH 3.5, 30 °C) was 95000 M⁻¹ s⁻¹. For the same protein, the Km (purified protein [2]; pH 6.5, 30 °C) was 280 ± 50 µM, the kcat (purified protein [2]; pH 6.5, 30 °C) was 0.31 ± 0.01 s⁻¹ and the kcat/Km (purified protein [2]; pH 6.5, 30 °C) was 1110 M⁻¹ s⁻¹.

B5: SgfSL (SgfSLwt) (Streptomyces griseoflavus; Y230A) (protein)
chain: AGAAPAGGEVRRVTMYAERLAGGQMGYGLEKGKASIPGPLIELNEGDTLHVEFENTMDVPVSLHVHGLDYEISSDGTKQNKSHVEPGGTRTYTWRTHEPGRRADGTWRAGSAGYWHYHDHVVGTEHGTGGIRNGLYGPVIVRRKGDVLPDATHTIVFNDMTINNRPAHTGPNFEATVGDRVEIVMITHGEAYHTFHMHGHRWADNRTGMLTGPDDPSQVIDNKICGPADSFGFQIIAGEGVGAGAWMYHCHVQSHSDMGMVGLFLVKKPDGTIPGYDPQEHAH
notes: as for B1
In the case of B5, the Km (purified protein [1]; pH 3.5, 30 °C) is reported as 170 ± 40 µM, the kcat (purified protein [1]; pH 3.5, 30 °C) is reported as 29 ± 3 s⁻¹ and the kcat/Km (purified protein [1]; pH 3.5, 30 °C) is reported as 169000 M⁻¹ s⁻¹. For the same protein, the Km (purified protein [2]; pH 8.5, 30 °C) was 760 ± 30 µM, the kcat (purified protein [2]; pH 8.5, 30 °C) was 1.68 ± 0.07 s⁻¹ and the kcat/Km (purified protein [2]; pH 8.5, 30 °C) was 2220 M⁻¹ s⁻¹.

B6: SgfSL (SgfSLwt) (Streptomyces griseoflavus; M199G/R240H) (protein)
chain: AGAAPAGGEVRRVTMYAERLAGGQMGYGLEKGKASIPGPLIELNEGDTLHVEFENTMDVPVSLHVHGLDYEISSDGTKQNKSHVEPGGTRTYTWRTHEPGRRADGTWRAGSAGYWHYHDHVVGTEHGTGGIRNGLYGPVIVRRKGDVLPDATHTIVFNDGTINNRPAHTGPNFEATVGDRVEIVMITHGEYYHTFHMHGHHWADNRTGMLTGPDDPSQVIDNKICGPADSFGFQIIAGEGVGAGAWMYHCHVQSHSDMGMVGLFLVKKPDGTIPGYDPQEHAH
notes: as for B1
B6 was tested, and the Km (purified protein [1]; pH 3.5, 30 °C) was 100 ± 15 µM, the kcat (purified protein [1]; pH 3.5, 30 °C) was 20 ± 1 s⁻¹ and the kcat/Km (purified protein [1]; pH 3.5, 30 °C) was 203000 M⁻¹ s⁻¹. It also gave a Km (purified protein [2]; pH 8.5, 30 °C) of 250 ± 20 µM, a kcat (purified protein [2]; pH 8.5, 30 °C) of 4.18 ± 0.09 s⁻¹ and a kcat/Km (purified protein [2]; pH 8.5, 30 °C) of 16500 M⁻¹ s⁻¹.
